Laboratory results from patent US20220251236A1 (Boehringer Ingelheim, published 2022).

T1: EGF2+3
T1 construct: also called Hu DLL3 EGF2+3 on HEK293 cells
T1 membrane-anchored DLL3 subdomain construct: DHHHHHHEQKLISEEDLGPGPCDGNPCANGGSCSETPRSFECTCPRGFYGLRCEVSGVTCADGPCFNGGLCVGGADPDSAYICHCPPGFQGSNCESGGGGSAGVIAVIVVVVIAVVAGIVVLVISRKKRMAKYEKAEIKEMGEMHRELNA

T2: EGF5+6
T2 construct: also called Hu DLL3 EGF5+6 on HEK293 cells
T2 membrane-anchored DLL3 subdomain construct: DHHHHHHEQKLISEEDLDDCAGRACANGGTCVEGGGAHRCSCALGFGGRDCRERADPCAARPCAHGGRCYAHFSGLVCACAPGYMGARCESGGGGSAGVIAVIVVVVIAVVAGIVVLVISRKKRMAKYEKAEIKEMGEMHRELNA

T3: EGF6+MEMBRANE PROXIMAL PEPTIDE
T3 construct: also called Hu DLL3 EGF6+membrane proximal peptide on HEK293 cells
T3 membrane-anchored DLL3 subdomain construct: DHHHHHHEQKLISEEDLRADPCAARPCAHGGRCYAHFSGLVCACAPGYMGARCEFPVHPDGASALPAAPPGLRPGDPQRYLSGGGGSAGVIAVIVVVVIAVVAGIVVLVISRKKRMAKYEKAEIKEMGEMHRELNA

T4: EGF1+2
T4 construct: also called Hu DLL3 EGF1+2 on HEK293 cells
T4 membrane-anchored DLL3 subdomain construct: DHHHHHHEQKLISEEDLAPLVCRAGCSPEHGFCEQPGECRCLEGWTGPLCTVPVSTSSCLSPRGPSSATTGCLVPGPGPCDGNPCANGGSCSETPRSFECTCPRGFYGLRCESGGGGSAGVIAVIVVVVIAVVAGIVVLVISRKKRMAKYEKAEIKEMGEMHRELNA

T5: EGF3+4
T5 construct: also called Hu DLL3 EGF3+4 on HEK293 cells
T5 membrane-anchored DLL3 subdomain construct: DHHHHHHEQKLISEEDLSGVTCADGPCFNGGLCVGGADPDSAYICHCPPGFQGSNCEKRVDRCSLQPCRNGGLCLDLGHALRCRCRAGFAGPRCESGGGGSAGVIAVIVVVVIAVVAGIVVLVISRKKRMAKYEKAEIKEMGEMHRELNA

T6: Human DLL3-His (human, UniProt Q9NYJ7 27-492)
T6 construct: also called huDLL3-His; hu DLL3
T6 sequence: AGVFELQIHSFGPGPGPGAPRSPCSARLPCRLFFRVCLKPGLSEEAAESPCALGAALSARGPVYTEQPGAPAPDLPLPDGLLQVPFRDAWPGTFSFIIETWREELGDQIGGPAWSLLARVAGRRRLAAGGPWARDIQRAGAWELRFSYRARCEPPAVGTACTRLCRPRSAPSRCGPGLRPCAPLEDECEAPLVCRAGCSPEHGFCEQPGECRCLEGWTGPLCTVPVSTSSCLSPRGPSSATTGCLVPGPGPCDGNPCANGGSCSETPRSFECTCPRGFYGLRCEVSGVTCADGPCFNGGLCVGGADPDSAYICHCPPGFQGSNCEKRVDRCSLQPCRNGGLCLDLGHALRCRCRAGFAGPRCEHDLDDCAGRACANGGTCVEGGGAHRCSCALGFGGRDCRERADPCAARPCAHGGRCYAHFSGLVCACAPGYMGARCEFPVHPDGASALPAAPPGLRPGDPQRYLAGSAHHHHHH

B1: DLL3#5/CD3#1 (bispecific antibody, human IgG1, kappa, lambda, L234A L235A)
chain 1: not shown
chain 2: EAVVTQEPSLTVSPGGTVTLTCRSSTGAVTTSNYANWVQEKPGQLPRGLIGGTNKRAPWVPARFSGSLLGGKAALTLSGAQPEDEAEYFCALWYSNLWVFGGGTKLTVLGQPKAAPSVTLFPPSSEELQANKATLVCLISDFYPGAVKVAWKADGSPVNTGVETTTPSKQSNNKYAASSYLSLTPEQWKSHRSYSCQVTHEGSTVEKTVAPAECSGGGGSEGKSSGSGSESKSTEGKSSGSGSESKSTGGGGSEVQLVESGGGLVQPGGSLKLSCAASGFTFNTYAMNWVRQAPGKGLEWVARIRSKYNNYATYYADSVKDRFTISRDDSKNTAYLQMNNLKTEDTAVYYCVRHGNFGNSYVSWFAYWGQGTLVTVSAASTKGPSVFPLAPSSKSTSGGTAALGCLVKDYFPEPVTVSWNSGALTSGVHTFPAVLQSSGLYSLSSVVTVPSSSLGTQTYICNVNHKPSNTKVDKRVEPKSCDKTHTCPPCPAPEAAGGPSVFLFPPKPKDTLMISRTPEVTCVVVDVSHEDPEVKFNWYVDGVEVHNAKTKPREEQYNSTYRVVSVLTVLHQDWLNGKEYKCKVSNKALPAPIEKTISKAKGQPREPQVYTLPPSREEMTKNQVSLSCAVKGFYPSDIAVEWESNGQPENNYKTTPPVLDSDGSFFLVSKLTVDKSRWQQGNVFSCSVMHEALHNRFTQKSLSLSPG
notes: Heterodimer of one DLL3 chain and one CD3 chain (scFab-Fc, knob-in-hole)
B2: DLL3#4/CD3#1 (bispecific antibody, human IgG1, kappa, lambda, L234A L235A)
chain 1: not shown
chain 2: B1 chain 2
notes: as for B1
B3: DLL3#6/CD3#1 (bispecific antibody, human IgG1, kappa, lambda, L234A L235A)
chain 1: DIQLTQSPSFLSTSVGDRVTITCRASQDISNYFAWYQQKPGKAPKLLIYAASTLQSGVPSRFSGGGSGTEFTLTISSLQPEDFATYYCQQLNSYPYTFGQGTKLEIKRTVAAPSVFIFPPSDEQLKSGTASVVCLLNNFYPREAKVQWKVDNALQSGNSQESVTEQDSKDSTYSLSSTLTLSKADYEKHKVYACEVTHQGLSSPVTKSFNRGECGGGGSEGKSSGSGSESKSTEGKSSGSGSESKSTGGGGSQVQLQESGPGLVKPSETLSLTCTVSGGSISSYFWSWIRQPAGKGLEWIGRIYTSGSTNYNPSLNSRLTMSVDTSKNQFSLKLSSVTAADTAVYYCARRGDWGGFDIWGQGTVVTVSSASTKGPSVFPLAPSSKSTSGGTAALGCLVKDYFPEPVTVSWNSGALTSGVHTFPAVLQSSGLYSLSSVVTVPSSSLGTQTYICNVNHKPSNTKVDKRVEPKSCDKTHTCPPCPAPEAAGGPSVFLFPPKPKDTLMISRTPEVTCVVVDVSHEDPEVKFNWYVDGVEVHNAKTKPREEQYNSTYRVVSVLTVLHQDWLNGKEYKCKVSNKALPAPIEKTISKAKGQPREPQVYTLPPSREEMTKNQVSLWCLVKGFYPSDIAVEWESNGQPENNYKTTPPVLDSDGSFFLYSKLTVDKSRWQQGNVFSCSVMHEALHNHYTQKSLSLSPG
chain 2: B1 chain 2
notes: as for B1
B4: DLL3#17/CD3#1 (bispecific antibody, human IgG1, kappa, lambda, L234A L235A)
chain 1: DIQMTQSPASLAASVGETVTITCRASENIYYSLAWYQQKQGKSPQLLIYNTNSLEDGVPSRFSGSGSGTQYSMKINSMQPEDTATYFCKQAYDFPLTFGAGTKLELKRTVAAPSVFIFPPSDEQLKSGTASVVCLLNNFYPREAKVQWKVDNALQSGNSQESVTEQDSKDSTYSLSSTLTLSKADYEKHKVYACEVTHQGLSSPVTKSFNRGECGGGGSEGKSSGSGSESKSTEGKSSGSGSESKSTGGGGSQIQLQQSGPEVVKPGASVKISCKASGYTFISYYIHWVKQRPGQGLEWIGWIYPGDGSTNNNEKFKGKTTLTADKSSSTAYMLLSSLTSEDSAVYFCARGEGNAMDDWGQGTSVTVSSASTKGPSVFPLAPSSKSTSGGTAALGCLVKDYFPEPVTVSWNSGALTSGVHTFPAVLQSSGLYSLSSVVTVPSSSLGTQTYICNVNHKPSNTKVDKRVEPKSCDKTHTCPPCPAPEAAGGPSVFLFPPKPKDTLMISRTPEVTCVVVDVSHEDPEVKFNWYVDGVEVHNAKTKPREEQYNSTYRVVSVLTVLHQDWLNGKEYKCKVSNKALPAPIEKTISKAKGQPREPQVYTLPPSREEMTKNQVSLWCLVKGFYPSDIAVEWESNGQPENNYKTTPPVLDSDGSFFLYSKLTVDKSRWQQGNVFSCSVMHEALHNHYTQKSLSLSPG
chain 2: B1 chain 2
notes: as for B1
B5: DLL3#18/CD3#1 (bispecific antibody, human IgG1, kappa, lambda, L234A L235A)
chain 1: DIQMTQSPASLAASVGETVTITCRASENIYYSLAWYQQKQGKSPQLLIYNANSLEDGVPSRFSGSGSGTQYSMKINNMQPEDTATYFCKQAYDVPLTFGAGTKLELKRTVAAPSVFIFPPSDEQLKSGTASVVCLLNNFYPREAKVQWKVDNALQSGNSQESVTEQDSKDSTYSLSSTLTLSKADYEKHKVYACEVTHQGLSSPVTKSFNRGECGGGGSEGKSSGSGSESKSTEGKSSGSGSESKSTGGGGSQVQLQQSGPDLVKPGASVKMSCEASGYTFTAYFIHWVKQKPGQGLEWIGYIDPFNDDTNYNVKFKGKATLTSDTSSSIAYMELSSLTSEDSSFYYCARGTSATLDYWGHGTTLTVSSASTKGPSVFPLAPSSKSTSGGTAALGCLVKDYFPEPVTVSWNSGALTSGVHTFPAVLQSSGLYSLSSVVTVPSSSLGTQTYICNVNHKPSNTKVDKRVEPKSCDKTHTCPPCPAPEAAGGPSVFLFPPKPKDTLMISRTPEVTCVVVDVSHEDPEVKFNWYVDGVEVHNAKTKPREEQYNSTYRVVSVLTVLHQDWLNGKEYKCKVSNKALPAPIEKTISKAKGQPREPQVYTLPPSREEMTKNQVSLWCLVKGFYPSDIAVEWESNGQPENNYKTTPPVLDSDGSFFLYSKLTVDKSRWQQGNVFSCSVMHEALHNHYTQKSLSLSPG
chain 2: B1 chain 2
notes: as for B1

Molecular target: T1, EGF2+3
Test: flow cytometry on HEK293 cells expressing the DLL3 subdomain construct, PE anti-human secondary, control: secondary antibody only
Procedure, shortened: (§1)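 Binders tested on HEK293 cells displaying the DLL3 subdomain construct; bound molecules detected by flow cytometry using PE-conjugated anti-human secondary antibody. Negative control: cells with secondary antibody only.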

Binder | binding result
B1 | no binding (tested: 1.6 nM)
B2 | no binding (tested: 1.6 nM)
B3 | no binding (tested: 1.6 nM)
B4 | no binding (tested: 1.6 nM)
B5 | no binding (tested: 1.6 nM)

Molecular target: T2, EGF5+6
Test: as above
Procedure, shortened: as §1

Binder | binding result
B1 | no binding (tested: 1.6 nM)
B2 | no binding (tested: 1.6 nM)
B3 | no binding (tested: 1.6 nM)
B4 | no binding (tested: 1.6 nM)
B5 | no binding (tested: 1.6 nM)

Molecular target: T3, EGF6+MEMBRANE PROXIMAL PEPTIDE
Test: as above
Procedure, shortened: as §1

Binder | binding result
B1 | no binding (tested: 1.6 nM)
B2 | no binding (tested: 1.6 nM)
B3 | no binding (tested: 1.6 nM)
B4 | no binding (tested: 1.6 nM)
B5 | no binding (tested: 1.6 nM)

Molecular target: T4, EGF1+2
Test: as above
Procedure, shortened: as §1

Binder | binding result
B2 | no binding (tested: 1.6 nM)
B3 | no binding (tested: 1.6 nM)
B4 | no binding (tested: 1.6 nM)
B5 | no binding (tested: 1.6 nM)

Molecular target: T5, EGF3+4
Test: as above
Procedure, shortened: as §1

Binder | binding result
B1 | no binding (tested: 1.6 nM)
B3 | no binding (tested: 1.6 nM)
B4 | no binding (tested: 1.6 nM)
B5 | no binding (tested: 1.6 nM)

molecular target: T6, Human DLL3-His; test: SPR (ProteOn XPR36), bispecific captured on protein A/G, hu DLL3 as analyte, Example 4B
Procedure, shortened: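 Bispecific constructs captured on protein A/G for 200 s at 30 μl/min, baseline stabilized with PBS-T-EDTA. Human DLL3 analyte injected 300 s at 30 μl/min; dissociation followed for 1800 s.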

Binder | Kd [nM]
B1 | < 0.02
B2 | < 0.02
B3 | 0.152
B4 | < 0.02
B5 | < 0.02
